Where “and” joins values, the source holds several entries; their conditions need not be identical. Equal entries are not always repeated.
T1: cynomolgus monkey LIV-1 (cynomolgus monkey, UniProt Q5R9M9 28-743 (Pongo abelii entry))
T1 construct: Recombinant on transfected CHO cells; also called cyno LIV-1; cyLIV-1
T1 chain: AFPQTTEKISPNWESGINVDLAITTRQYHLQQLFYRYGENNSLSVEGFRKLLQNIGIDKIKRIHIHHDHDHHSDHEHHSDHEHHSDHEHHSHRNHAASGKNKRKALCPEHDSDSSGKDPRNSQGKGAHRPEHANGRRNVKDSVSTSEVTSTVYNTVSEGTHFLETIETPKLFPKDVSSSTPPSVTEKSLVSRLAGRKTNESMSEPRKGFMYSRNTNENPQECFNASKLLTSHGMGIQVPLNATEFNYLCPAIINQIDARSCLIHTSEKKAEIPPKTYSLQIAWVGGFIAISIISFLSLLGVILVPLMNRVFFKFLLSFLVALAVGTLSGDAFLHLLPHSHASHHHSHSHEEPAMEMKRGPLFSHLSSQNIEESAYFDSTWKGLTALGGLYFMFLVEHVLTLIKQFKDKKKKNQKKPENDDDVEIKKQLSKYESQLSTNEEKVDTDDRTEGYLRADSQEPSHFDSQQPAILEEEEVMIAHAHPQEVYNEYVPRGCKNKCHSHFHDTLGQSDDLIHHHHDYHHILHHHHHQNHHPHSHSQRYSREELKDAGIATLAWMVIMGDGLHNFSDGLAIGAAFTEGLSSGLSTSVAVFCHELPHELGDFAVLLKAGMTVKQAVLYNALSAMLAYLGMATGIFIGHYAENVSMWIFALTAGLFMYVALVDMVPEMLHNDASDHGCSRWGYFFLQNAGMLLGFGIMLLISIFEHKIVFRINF

T2: human LIV-1 (human, UniProt Q13433 29-755)
T2 construct: also called hLIV-1; Q13433
T2 sequence: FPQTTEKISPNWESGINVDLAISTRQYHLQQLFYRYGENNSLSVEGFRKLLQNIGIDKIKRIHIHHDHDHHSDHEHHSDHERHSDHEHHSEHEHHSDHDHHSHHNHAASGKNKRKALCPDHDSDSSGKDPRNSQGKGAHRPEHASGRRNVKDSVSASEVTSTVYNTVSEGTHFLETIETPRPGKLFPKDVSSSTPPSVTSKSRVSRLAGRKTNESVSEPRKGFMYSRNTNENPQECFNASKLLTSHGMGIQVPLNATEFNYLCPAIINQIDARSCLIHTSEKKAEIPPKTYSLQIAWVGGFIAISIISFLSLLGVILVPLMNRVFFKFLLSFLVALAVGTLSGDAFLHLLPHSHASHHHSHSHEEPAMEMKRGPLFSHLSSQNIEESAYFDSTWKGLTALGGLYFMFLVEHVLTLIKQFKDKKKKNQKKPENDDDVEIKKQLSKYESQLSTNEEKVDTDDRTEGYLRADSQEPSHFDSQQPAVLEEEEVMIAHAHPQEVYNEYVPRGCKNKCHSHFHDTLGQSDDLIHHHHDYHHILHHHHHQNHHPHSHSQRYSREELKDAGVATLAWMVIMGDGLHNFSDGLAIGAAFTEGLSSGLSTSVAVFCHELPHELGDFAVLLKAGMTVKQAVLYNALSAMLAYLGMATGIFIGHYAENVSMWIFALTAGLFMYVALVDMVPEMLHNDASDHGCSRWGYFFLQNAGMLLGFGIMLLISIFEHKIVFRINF

T3: human LIV-1 (UniProt Q13433 29-755)
T3 chain: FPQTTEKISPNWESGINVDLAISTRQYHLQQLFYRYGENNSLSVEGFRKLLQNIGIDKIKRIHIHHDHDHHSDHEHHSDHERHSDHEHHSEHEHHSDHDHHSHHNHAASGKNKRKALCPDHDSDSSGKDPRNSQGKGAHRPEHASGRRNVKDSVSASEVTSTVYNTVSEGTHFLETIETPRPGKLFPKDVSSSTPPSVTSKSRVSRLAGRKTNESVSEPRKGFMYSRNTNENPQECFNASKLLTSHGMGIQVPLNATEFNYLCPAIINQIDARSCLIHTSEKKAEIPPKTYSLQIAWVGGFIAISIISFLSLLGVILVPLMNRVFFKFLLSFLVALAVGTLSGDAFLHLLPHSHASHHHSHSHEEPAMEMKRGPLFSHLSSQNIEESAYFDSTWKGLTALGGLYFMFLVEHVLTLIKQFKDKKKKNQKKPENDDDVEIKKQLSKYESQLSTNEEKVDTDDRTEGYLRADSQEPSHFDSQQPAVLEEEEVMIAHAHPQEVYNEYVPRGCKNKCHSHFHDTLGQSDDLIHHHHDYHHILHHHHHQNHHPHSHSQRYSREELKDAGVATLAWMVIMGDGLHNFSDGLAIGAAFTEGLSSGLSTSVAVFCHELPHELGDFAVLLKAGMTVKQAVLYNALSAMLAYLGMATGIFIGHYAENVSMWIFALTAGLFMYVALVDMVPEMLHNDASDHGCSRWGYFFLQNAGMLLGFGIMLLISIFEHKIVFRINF

T4: cynomolgus monkey LIV-1
T4 chain: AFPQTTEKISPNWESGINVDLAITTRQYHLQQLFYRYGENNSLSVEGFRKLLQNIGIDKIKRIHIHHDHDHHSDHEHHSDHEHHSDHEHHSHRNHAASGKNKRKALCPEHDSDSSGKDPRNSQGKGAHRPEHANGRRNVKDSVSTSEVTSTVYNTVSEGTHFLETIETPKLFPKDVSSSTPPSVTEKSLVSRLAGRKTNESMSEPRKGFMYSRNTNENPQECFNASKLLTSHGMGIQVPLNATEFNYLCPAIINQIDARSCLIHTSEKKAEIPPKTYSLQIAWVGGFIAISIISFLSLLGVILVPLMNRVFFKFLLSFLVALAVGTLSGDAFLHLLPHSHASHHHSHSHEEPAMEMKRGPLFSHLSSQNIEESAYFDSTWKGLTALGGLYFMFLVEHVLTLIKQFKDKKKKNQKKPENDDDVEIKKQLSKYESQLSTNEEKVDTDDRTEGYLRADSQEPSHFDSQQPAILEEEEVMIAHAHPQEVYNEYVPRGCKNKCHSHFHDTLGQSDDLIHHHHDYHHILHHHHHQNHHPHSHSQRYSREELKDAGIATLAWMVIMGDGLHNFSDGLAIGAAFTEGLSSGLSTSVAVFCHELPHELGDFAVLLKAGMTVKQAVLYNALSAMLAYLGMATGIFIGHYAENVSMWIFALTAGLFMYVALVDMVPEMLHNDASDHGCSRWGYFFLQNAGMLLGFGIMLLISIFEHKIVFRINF


How the values were obtained:
cynomolgus monkey LIV-1 [1] = target: T1, cynomolgus monkey LIV-1; experiment: EC50 determination, CHO cells expressing recombinant cyno LIV-1
Protocol: (§1) 1×10⁵ CHO cells expressing recombinant cyno LIV-1 in PBS were aliquoted in each well of a 96-well v-bottom plates on ice. […] Cells were pelleted and washed 3 times with PBS. The cells were pelleted and resuspended in 125 μL of PBS/BSA. Fluorescence was analyzed by flow cytometry, using percent of saturated fluorescent signal to determine percent labeled murine LIV-1 mAb bound and to subsequently extrapolate the EC50 by fitting the data to a sigmoidal dose-response curve with variable slope.

human LIV-1 [2] = target: T2, human LIV-1; experiment: comparison of the EC50s of Table 3, CHO cells expressing human LIV-1
Protocol: as §1, with “recombinant human” for “recombinant cyno”, “in PBS/BSA” for “in PBS”, “aliquoted into” for “aliquoted in”, “with PBS/BSA.” for “with PBS.”

human LIV-1 [3] = target: T2, human LIV-1; experiment: saturation binding, CHO cells expressing human or cyno LIV-1 (FIG. 22)
human LIV-1 [4] = target: T3, human LIV-1; experiment: competition binding on CHO hLIV1 cells
human LIV-1 [5] = target: T2, human LIV-1; experiment: average of several saturation binding curves, flow cytometry, MCF7 cells
cynomolgus monkey LIV-1 [6] = target: T4, cynomolgus monkey LIV-1; experiment: saturation binding on CHO cells; apparent Kd
human LIV-1 [7] = target: T3, human LIV-1; experiment: saturation binding on CHO cells; apparent Kd
human LIV-1 [8] = target: T3, human LIV-1; experiment: saturation binding, flow cytometry on MCF7 cells; AF-labeled
human LIV-1 [9] = target: T2, human LIV-1; experiment: competition flow cytometry, CHO cells expressing human LIV-1, vs 5 nM AF647-labelled BR2-14a
Protocol: as §1, with “recombinant human” for “recombinant cyno”, “in PBS/BSA” for “in PBS”, “aliquoted into” for “aliquoted in”, “with PBS/BSA.” for “with PBS.”

cynomolgus monkey LIV-1 [10] = target: T1, cynomolgus monkey LIV-1; experiment: saturation binding, CHO cells expressing cyno LIV-1 (FIG. 22)
human LIV-1 [11] = target: T2, human LIV-1; experiment: saturation binding, CHO cells expressing human LIV-1 (FIG. 22)
human LIV-1 [12] = target: T2, human LIV-1; experiment: competition flow cytometry, CHO cells expressing recombinant LIV-1, vs 5 nM AF647-labelled BR2-22a
Protocol: 1×10⁵ CHO cells expressing recombinant LIV-1 in PBS were aliquoted into each well of a 96-well v-bottom plates on ice. […] Cells were pelleted and washed 3 times with PBS. The cells were then pelleted and resuspended in 125 μL of PBS/BSA. Fluorescence was analyzed by flow cytometery, using percent of saturated fluorescent signal to determine percent labeled humanized BR2-22a antibody bound and to subsequently extrapolate the EC50 by fitting the data to a sigmoidal dose-response curve with variable slope.
All permutations of these five heavy chains and six light chains were then tested in a competition assay compared with BR2-22a (see FIG. 17).

| binding result (cynomolgus monkey LIV-1 [1]) | fold better binding than the next humanized antibody HBLF (human LIV-1 [2]) [fold] | fold affinity for human LIV-1 relative to cynomolgus LIV-1 (human LIV-1 [3]) [fold] | EC50 (human LIV-1 [4]) [mg/L] | Kd (human LIV-1 [5]) [nM] | Kd (cynomolgus monkey LIV-1 [6]) [nM] | Kd (human LIV-1 [7]) [nM] | Kd (human LIV-1 [8]) | EC50 (human LIV-1 [9]) [mg/L] | binding result (cynomolgus monkey LIV-1 [10]) | fold higher affinity (inverse of dissociation constant) than hLIV14 (human LIV-1 [11]) [fold] | EC50 (human LIV-1 [12]) [mg/L] | Binder |
| --- | --- | --- | --- | --- | --- | --- | --- | --- | --- | --- | --- | --- |
| binds | ≥ 2 | 2 | 0.642 | 1.5 | 2.1 | 4.3 | 0.4 µg/mL and 2.9 nM | 0.3 | – | – | – | humanized BR2-14a antibody HBLB (hLIV14) (antibody, human IgG1, V domains shown, also called hLIV-14 HBLB WT; LIV-1 mAb HBLB) VH: QVQLVQSGAEVKKPGASVKVSCKASGYTIEDYYMHWVRQAPGQGLEWMGWIDPENGDTEYAPTFQGRVTMTRDTSINTAYMELSRLRSDDTAVYYCARHDAHYGTWFAYWGQGTLVTVSS VL: DVVMTQSPLSLPVTLGQPASISCRSSQSIIRNDGNTYLEWYQQRPGQSPRRLIYRVSNRFSGVPDRFSGSGSGTDFTLKISRVEAEDVGVYYCFQGSHVPYTFGGGTKVEIKR |
| binds | – | – | 0.419 | – | – | – | – | – | – | – | – | humanized BR2-14a antibody HBLB S239C (antibody, human IgG1, kappa, V domains shown, also called LIV-14d; hLIV-14 HBLB S239C) VH: QVQLVQSGAEVKKPGASVKVSCKASGYTIEDYYMHWVRQAPGQGLEWMGWIDPENGDTEYAPTFQGRVTMTRDTSINTAYMELSRLRSDDTAVYYCARHDAHYGTWFAYWGQGTLVTVSS VL: DVVMTQSPLSLPVTLGQPASISCRSSQSIIRNDGNTYLEWYQQRPGQSPRRLIYRVSNRFSGVPDRFSGSGSGTDFTLKISRVEAEDVGVYYCFQGSHVPYTFGGGTKVEIKR |
| – | – | – | – | – | 1.3 | 1.2 | – | – | binds | ~4 | 0.5 | humanized BR2-22a antibody HGLG (hLIV22) (antibody, V domains shown, Only variable regions tied to the tested antibody; also called humanized LIV22 antibody; hLIV-22 HG + hLIV-22 LG) VH: QVQLVQSGAEVKKPGASVKVSCKASGLTIEDYYMHWVRQAPGQGLEWMGWIDPENGDTEYGPKFQGRVTMTRDTSINTAYMELSRLRSDDTAVYYCAVHNAHYGTWFAYWGQGTLVTVSS VL: DVVMTQSPLSLPVTLGQPASISCRSSQSLLHSSGNTYLEWYQQRPGQSPRPLIYKISTRFSGVPDRFSGSGSGTDFTLKISRVEAEDVGVYYCFQGSHVPYTFGGGTKVEIKR |
